One block for each substance: values may come before it.
What was measured:
[1] = molecular target: CrCFAP410-CTD mutant L224P; experiment: static light scattering (SLS); conditions: parent: 15.62
[2] = molecular target: HsCFAP410-CTD, C-terminal domain of Homo sapiens cilia- and flagella-associated protein 410, wild type (human) (UniProt O43822); experiment: crystal structure; synthetic CTD polypeptides; TbCFAP410-CTD in 2.0 M (NH4)2SO4, 5% iso-propanol, 4°C; HsCFAP410-CTD in 1.5 M NaCl, 10% ethanol, 22°C; CrCFAP410-CTD in 0.02 M CaCl2, 0.1 M sodium acetate pH 5.0, 30% MPD, 4°C
[3] = molecular target: CrCFAP410-CTD, C-terminal domain of Chlamydomonas reinhardtii CFAP410, wild type (C. reinhardtii); experiment: SEC-MALS; static light scattering coupled to SEC; 50 μl at 2 mg/ml on Superdex S-200 10/300 GL; 20 mM HEPES pH 7.5, 100 mM NaCl, 1 mM DTT, 1% glycerol; Mini-DAWN Treos
[4] = molecular target: CrCFAP410-CTD, C-terminal domain of Chlamydomonas reinhardtii CFAP410, wild type (C. reinhardtii); experiment: crystal structure; synthetic CTD polypeptides; TbCFAP410-CTD in 2.0 M (NH4)2SO4, 5% iso-propanol, 4°C; HsCFAP410-CTD in 1.5 M NaCl, 10% ethanol, 22°C; CrCFAP410-CTD in 0.02 M CaCl2, 0.1 M sodium acetate pH 5.0, 30% MPD, 4°C
[5] = molecular target: TbCFAP410-CTD, C-terminal domain of Trypanosoma brucei CFAP410, wild type (T. brucei); experiment: as above
[6] = molecular target: CrCFAP410-CTD mutant A219E; experiment: static light scattering (SLS); conditions: parent: 15.62
[7] = molecular target: CrCFAP410-CTD mutant A219E (C. reinhardtii); experiment: SEC-MALS; static light scattering coupled to SEC; 50 μl at 2 mg/ml on Superdex S-200 10/300 GL; 20 mM HEPES pH 7.5, 100 mM NaCl, 1 mM DTT, 1% glycerol; Mini-DAWN Treos

Substance: CrCFAP410-CTD, C-terminal domain of Chlamydomonas reinhardtii CFAP410, wild type L224P
- other: molecular weight (SLS) [1]: 4.16 kDa

Substance: HsCFAP410-CTD, C-terminal domain of Homo sapiens cilia- and flagella-associated protein 410, wild type (from UniProt O43822 212-246) (domain or fragment)
- stoichiometry N [2]: 4

Substance: CrCFAP410-CTD mutant A219E (domain or fragment)
- stoichiometry N [7]: 2

The remaining lines, values ahead:

- stoichiometry N [3]: 4
- stoichiometry N [4]: 4
Substance: CrCFAP410-CTD, C-terminal domain of Chlamydomonas reinhardtii CFAP410, wild type (domain or fragment)

- stoichiometry N [5]: 4
Substance: TbCFAP410-CTD, C-terminal domain of Trypanosoma brucei CFAP410, wild type (domain or fragment)

- other: molecular weight (SLS) [6]: 8.35 kDa
Substance: CrCFAP410-CTD, C-terminal domain of Chlamydomonas reinhardtii CFAP410, wild type A219E

Source: article PMC11500688
